Test results published in the supplement of paper PMC12667976.

B1: library; numbered along this chain (parent)
chain: MATDAALRRLLRLHRTEIAVAVDSAFPLLHALADHDVVPEDKFQETLHLKEKEGCPQAFHALLSWLLTQDSTAILDFWRVLFKDYNLERYGRLQPILDSFPKDVDLSQPRKGRKPPAVPKALVPPPRLPTKRKASEEARAAAPAALTPRGTASPGSQLKAKPPKKPESSAEQQRLPLGNGIQTMSASVQRAVAMSSGDVPGARGAVEGILIQQVFESGGSKKCIQVGGEFYTPSKFEDSGSGKNKARSSSGPKPLVRAKGAQGAAPGGGEARLGQQGSVPAPLALPSDPQLHQKNEDECAVCRDGGELICCDGCPRAFHLACLSPPLREIPSGTWRCSSCLQATVQEVQPRAEEPRPQEPPVETPLPPGLRSAGEEVRGPPGEPLAGMDTTLVYKHLPAPPSAAPLPGLDSSALHPLLCVGPEGQQNLAPGARCGVCGDGTDVLRCTHCAAAFHWRCHFPAGTSRPGTGLRCRSCSGDVTPAPVEGVLAPSPARLAPGPAKDDTASHEPALHRDDLESLLSEHTFDGILQWAIQSMARPAAPFPS

Variants of: B1
Experiment: AIRE transcriptional activation functional score (insulin promoter-GFP; nonsense median 0, synonymous median 1) (normalised score); higher = higher AIRE activity (more reporter activation)
Conditions: with insulin promoter-GFP reporter in HEK293
Summary of the method: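 Using Bxb1 recombinase, codon-optimized NNN-codon libraries for three AIRE regions were inserted into Flp-In T-REx HEK293 landing-pad cells with an insulin core promoter-GFP reporter. After integrants (mCherry+, BFP−) were sorted at day 7 and expanded for 7 days, the top 10% GFP and unselected integrant populations underwent tile-sequencing. Functional scores are wild-type-subtracted enrichments of variants in select over non-select samples. A cutoff of 10 counts per million in non-select applied, and values were rescaled (nonsense median 0, synonymous median 1) and averaged over biological replicates.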

AIRE transcriptional activation functional score: each site, then its substitutions
P384: K 0.962, Q 1.01, A 0.99, M 1.35, G 1.62, T 1.17, N 0.179, H 1.05, V 0.849, E 1.39, I 0.998, S 0.379, W 1.61, L 1.14, R 1.19
A386: H 1.44, M 1.53, V 0.968, D 0.793, L 1.36, C 0.57, T 1.02, I 0.514, K 1.1, W 1.47, G 0.732, P 0.921, F 1.74, Q 0.654, Y 1.55, E 1.21, R 1.1, S 0.756, N 0.757
G382: Q 1.24, A 0.906, C 0.802, N 0.95, I 0.702, W 1.38, H 1.29, E 1.19, T 0.841, P 0.74, L 0.669, F 1.11, V 1.22, K 0.449, S 0.979, D 0.898, R 1.03, Y 1.13
G387: R 1.1, I 1.59, A 1.19, C 0.799, F 1.52, L 1.35, P 0.291, K 0.344
E383: T 1.49, Y 1.27, K 0.473, C 1.18, Q 0.74, A 1.32, P 0.887, D 0.97, F 1.58, S 1.01, M 0.564, L 1.22, I 0.922, W 0.951, G 1.09, H 0.859, R 1.05, V 1.13
P380: W 1.39, C 0.499, T 1.45, K 0.944, A 0.626, F 0.369, G 0.801, Q 1.16, D 0.476, M 1.34, E 0.934, Y 1.42, I 1.14, N 1.52, V 0.912, R 0.936, L 0.882, S 0.998, H 0.534
L385: V 0.955, T 0.874, Y 1.34, N 0.689, K 0.616, C 1.42, E 1.15, R 0.699, G 1, F 0.899, H 1.13, A 0.341, D -0.182, S 0.77, Q 1.24, I 0.603, P 0.451, W 1.56
P381: E 1.26, S 0.87, N 1.07, L 1.13, H 1.03, K 1.04, R 1.25, D 0.696, I 0.705, A 0.912, Q 1.35, M 1.06, W 0.42, T 0.929, Y 1.39, F 1.15, G 1.11, V 1.15, C 0.894
R378: P 0.932, T 0.986, Y 0.657, D 0.631, F 1.1, S 0.975, M 0.0153, I 0.795, G 0.98, C 0.601, V 0.869, H 0.92, Q 0.825, E 0.928, K 1.17, L 0.904, N 1.28, A 0.851
G379: R 0.719, S 1.37, E 1, V 0.691, P 0.992, D 1.24, A 0.877, N 1.23, T 0.911, L 1.41, I 1.26, Y 1.47, W 1.23, K 1.19, C 0.863
